# Data taken from patent US20210347867A1.
# Target: amyloid peptide (not named; Aβ1-42, AβpE3-42 and 4-42 were tested)
# Assay: SPR (Biacore); reference not named (variants were made to raise the affinity of RHS71/RKA)
binder,measurement,value
"humanized NT4X-167 RHS71/RKH (antibody, V domains shown) VH: QVQLQESGPGLVKPSETLSLTCTVSGFSLSSYGIHWIRQPPGKGLEWIGVMWSGGITNYYPSLKSRVTISRDTSKNQVSLKLSSVTAADTAVYYCARGSRYALDYWGQGTLVTVSS VL: DIQMTQSPSSLSASVGDRVTITCRASQDISNYLNWYQQKPGKAPKLLIYYTSRLHSGVPSRFSGSGSGTDFTLTISSLQPEDFATYYCQQGHTLPPTFGGGTKLEIK",fold improvement on the Biacore,2 fold
